Source: patent publication US11052053B2, “Nanoparticle comprising a bio-resorbable polyester, a hydrophilic polymer and an acylated human lactoferrin-derived peptide” (Evonik Operations GmbH, priority 2018, dated 2021)
Bridge positions count the residues as written; N and C are the ends. * marks the point of attachment. Palmitoyl = CCCCCCCCCCCCCCCC(=O)*

Assay: hLFF-peptide precipitation test (freeze-thawing)
Assay type: physicochemical
Details: 2 mM peptide in 50 mM Hepes buffer pH 8, freezing at −18° C.
Description: hLFF-peptides tested for precipitation by one freeze-thawing cycle (freezing at −18° C.) with hLFF peptides dissolved in 50 mM Hepes buffer pH 8 at a concentration of 2 mM.
Solutions of acylated and biacylated human lactoferrin peptides were tested for precipitation in several freeze-thaw cycles.

Substance | precipitation of peptide solution after freeze-thawing
Acetyl-NH-KCFQWQRNMRKVRGPPVSCIKR-CONH2 (Ac-KCFQWQRNMRKVRGPPVSCIKR-NH2; disulfide 2-19; listed as Homo sapiens) [C2-hLFF] | do not precipitate
palmitoyl-NH-KCFQWQRNMRKVRGPPVSCIKR-CONH2 (Palmitoyl-KCFQWQRNMRKVRGPPVSCIKR-NH2; disulfide 2-19) [C16-hLFF] | do not precipitate
